Target: AliC (residues 24-655) (Streptococcus pneumoniae)
Assay: crystal structure

stoichiometry N: 2
Substance: AliC (residues 24-655) (natural protein)

From article doi:10.1101/2023.12.05.570199
